Data from US20240352105A1, “COMPOSITIONS AND METHODS FOR NEUTRALIZING ANTIGENS” (PACAGEN, INC, priority 2023, published 2024).
Where “and” joins values, the source holds several entries; their conditions need not be identical. Identical values can stand only once.

Assays:
[1] = target: T1, recombinant His-tagged Der p2 (dust mite, UniProt P49278 18-146); experiment: serum ELISA, 1:1K, Alpaca 1 block
T1 construct: also called Der p2-His; Der p2-HIS; not shown: His tag
T1 sequence (looked up): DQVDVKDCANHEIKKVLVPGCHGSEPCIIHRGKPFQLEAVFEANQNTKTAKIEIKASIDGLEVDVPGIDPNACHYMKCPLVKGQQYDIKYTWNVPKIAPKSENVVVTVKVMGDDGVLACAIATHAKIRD

[2] = target: recombinant His-tagged Can f1 (dog (Canis familiaris)) (UniProt O18873); experiment: serum ELISA, 1:1K, Alpaca 1 block
Chain of recombinant His-tagged Can f1 (dog (Canis familiaris)) (O18873 19-174 limits assumed): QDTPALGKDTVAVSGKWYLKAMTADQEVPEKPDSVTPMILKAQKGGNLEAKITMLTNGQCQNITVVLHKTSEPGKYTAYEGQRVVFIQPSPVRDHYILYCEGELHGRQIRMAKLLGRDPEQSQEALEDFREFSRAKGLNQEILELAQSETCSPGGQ

[3] = target: recombinant His-tagged Can f2 (dog (Canis familiaris)) (UniProt O18874); experiment: serum ELISA, 1:1K, Alpaca 1 block
Chain of recombinant His-tagged Can f2 (dog (Canis familiaris)) (O18874 19-180 limits assumed): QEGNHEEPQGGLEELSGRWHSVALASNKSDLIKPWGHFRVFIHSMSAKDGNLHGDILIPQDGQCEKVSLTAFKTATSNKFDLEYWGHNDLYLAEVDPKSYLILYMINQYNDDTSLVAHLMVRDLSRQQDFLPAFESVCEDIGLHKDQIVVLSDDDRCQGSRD

[4] = target: Can f2-sumo-His (dog (Canis familiaris)) (UniProt O18874); experiment: serum ELISA, 1:1K, Alpaca 2 block
Chain of Can f2-sumo-His (dog (Canis familiaris)) (O18874 19-180): as the sequence (O18874 19-180 limits assumed) above

[5] = target: T1, recombinant His-tagged Der p2; experiment: serum ELISA, 1:1K, Alpaca 2 block
[6] = target: recombinant His-tagged Can f1 (dog (Canis familiaris)) (UniProt O18873); experiment: serum ELISA, 1:1K, Alpaca 2 block
[7] = target: recombinant His-tagged Can f2 (dog (Canis familiaris)) (UniProt O18874); experiment: serum ELISA, 1:1K, Alpaca 2 block
[8] = target: Can f2-sumo-His (dog (Canis familiaris)) (UniProt O18874); experiment: serum ELISA, 1:2K, Alpaca 1 block
[9] = target: T1, recombinant His-tagged Der p2; experiment: serum ELISA, 1:2K, Alpaca 1 block
[10] = target: recombinant His-tagged Can f2 (dog (Canis familiaris)) (UniProt O18874); experiment: serum ELISA, 1:2K, Alpaca 1 block
[11] = target: Can f2-sumo-His (dog (Canis familiaris)) (UniProt O18874); experiment: serum ELISA, 1:4k, Alpaca 1 block
[12] = target: T1, recombinant His-tagged Der p2; experiment: serum ELISA, 1:4k, Alpaca 1 block
[13] = target: recombinant His-tagged Can f1 (dog (Canis familiaris)) (UniProt O18873); experiment: serum ELISA, 1:4k, Alpaca 1 block
[14] = target: recombinant His-tagged Can f2 (dog (Canis familiaris)) (UniProt O18874); experiment: serum ELISA, 1:4k, Alpaca 1 block
[15] = target: Can f2-sumo-His (dog (Canis familiaris)) (UniProt O18874); experiment: serum ELISA, 1:64K, Alpaca 2 block
[16] = target: T1, recombinant His-tagged Der p2; experiment: serum ELISA, 1:64K, Alpaca 2 block
[17] = target: recombinant His-tagged Can f1 (dog (Canis familiaris)) (UniProt O18873); experiment: serum ELISA, 1:64K, Alpaca 2 block
[18] = target: recombinant His-tagged Can f2 (dog (Canis familiaris)) (UniProt O18874); experiment: serum ELISA, 1:64K, Alpaca 2 block

Negative serum taken from naïve alpacas
OD at 450 nm [1]: 0.246 OD and 0.255 OD | OD at 450 nm [2]: 0.294 OD and 0.342 OD | OD at 450 nm [3]: 0.128 OD and 0.133 OD | OD at 450 nm [4]: 0.186 OD and 0.181 OD | OD at 450 nm [5]: 0.201 OD and 0.19 OD | OD at 450 nm [6]: 0.228 OD and 0.218 OD | OD at 450 nm [7]: 0.227 OD and 0.241 OD | OD at 450 nm [8]: 0.088 OD and 0.085 OD | OD at 450 nm [9]: 0.149 OD and 0.154 OD | OD at 450 nm [10]: 0.093 OD and 0.099 OD | OD at 450 nm [11]: 0.071 OD and 0.072 OD | OD at 450 nm [12]: 0.119 OD and 0.116 OD | OD at 450 nm [13]: 0.137 OD and 0.147 OD | OD at 450 nm [14]: 0.077 OD and 0.075 OD | OD at 450 nm [15]: 0.07 OD and 0.057 OD | OD at 450 nm [16]: 0.071 OD and 0.079 OD | OD at 450 nm [17]: 0.088 OD and 0.087 OD | OD at 450 nm [18]: 0.07 OD and 0.062 OD
